Source: PMC3748711, “APP interacts with LRP4 and agrin to coordinate the development of the neuromuscular junction in mice” (eLife, 2013)

B1: APP-Fc (APP695 extracellular domain, residues 1-596, fused to the constant region of human IgG) (Fc fusion, UniProt P12023-2 18-596, looked up)
chain: LEVPTDGNAGLLAEPQIAMFCGKLNMHMNVQNGKWESDPSGTKTCIGTKEGILQYCQEVYPELQITNVVEANQPVTIQNWCKRGRKQCKTHTHIVIPYRCLVGEFVSDALLVPDKCKFLHQERMDVCETHLHWHTVAKETCSEKSTNLHDYGMLLPCGIDKFRGVEFVCCPLAEESDSVDSADAEEDDSDVWWGGADTDYADGGEDKVVEVAEEEEVADVEEEEADDDEDVEDGDEVEEEAEEPYEEATERTTSTATTTTTTTESVEEVVRVPTTAASTPDAVDKYLETPGDENEHAHFQKAKERLEAKHRERMSQVMREWEEAERQAKNLPKADKKAVIQHFQEKVESLEQEAANERQQLVETHMARVEAMLNDRRRLALENYITALQAVPPRPHHVFNMLKKYVRAEQKDRQHTLKHFEHVRMVDPKKAAQIRSQVMTHLRVIYERMNQSLSLLYNVPAVAEEIQDEVDELLQKEQNYSDDVLANMISEPRISYGNDALMPSLTETKTTVELLPVNGEFSLDDLQPWHPFGVDSVPANTENEVEPVDARPAADRGLTTRPGSGLTNIKTEEISEVKM

What was measured:
[1] = biological target: B1; assay: pull-down; 100 ng purified APP-Fc on Protein A-agarose beads, incubated with 100 ng purified MBP-LRP4LBD and 0-1000 ng neuronal agrin in PBS with 0.1% BSA, 4 hr, 4°C; immunoblot with anti-MBP, anti-agrin, anti-Fc; conditions: both partners purified
[2] = biological target: LRP4 (endogenous, mouse embryonic muscle) (mouse (endogenous in embryonic muscle), UniProt Q8VI56 21-1905); assay: cell-based or functional assay
Chain of LRP4 (endogenous, mouse embryonic muscle) (Q8VI56 21-1905): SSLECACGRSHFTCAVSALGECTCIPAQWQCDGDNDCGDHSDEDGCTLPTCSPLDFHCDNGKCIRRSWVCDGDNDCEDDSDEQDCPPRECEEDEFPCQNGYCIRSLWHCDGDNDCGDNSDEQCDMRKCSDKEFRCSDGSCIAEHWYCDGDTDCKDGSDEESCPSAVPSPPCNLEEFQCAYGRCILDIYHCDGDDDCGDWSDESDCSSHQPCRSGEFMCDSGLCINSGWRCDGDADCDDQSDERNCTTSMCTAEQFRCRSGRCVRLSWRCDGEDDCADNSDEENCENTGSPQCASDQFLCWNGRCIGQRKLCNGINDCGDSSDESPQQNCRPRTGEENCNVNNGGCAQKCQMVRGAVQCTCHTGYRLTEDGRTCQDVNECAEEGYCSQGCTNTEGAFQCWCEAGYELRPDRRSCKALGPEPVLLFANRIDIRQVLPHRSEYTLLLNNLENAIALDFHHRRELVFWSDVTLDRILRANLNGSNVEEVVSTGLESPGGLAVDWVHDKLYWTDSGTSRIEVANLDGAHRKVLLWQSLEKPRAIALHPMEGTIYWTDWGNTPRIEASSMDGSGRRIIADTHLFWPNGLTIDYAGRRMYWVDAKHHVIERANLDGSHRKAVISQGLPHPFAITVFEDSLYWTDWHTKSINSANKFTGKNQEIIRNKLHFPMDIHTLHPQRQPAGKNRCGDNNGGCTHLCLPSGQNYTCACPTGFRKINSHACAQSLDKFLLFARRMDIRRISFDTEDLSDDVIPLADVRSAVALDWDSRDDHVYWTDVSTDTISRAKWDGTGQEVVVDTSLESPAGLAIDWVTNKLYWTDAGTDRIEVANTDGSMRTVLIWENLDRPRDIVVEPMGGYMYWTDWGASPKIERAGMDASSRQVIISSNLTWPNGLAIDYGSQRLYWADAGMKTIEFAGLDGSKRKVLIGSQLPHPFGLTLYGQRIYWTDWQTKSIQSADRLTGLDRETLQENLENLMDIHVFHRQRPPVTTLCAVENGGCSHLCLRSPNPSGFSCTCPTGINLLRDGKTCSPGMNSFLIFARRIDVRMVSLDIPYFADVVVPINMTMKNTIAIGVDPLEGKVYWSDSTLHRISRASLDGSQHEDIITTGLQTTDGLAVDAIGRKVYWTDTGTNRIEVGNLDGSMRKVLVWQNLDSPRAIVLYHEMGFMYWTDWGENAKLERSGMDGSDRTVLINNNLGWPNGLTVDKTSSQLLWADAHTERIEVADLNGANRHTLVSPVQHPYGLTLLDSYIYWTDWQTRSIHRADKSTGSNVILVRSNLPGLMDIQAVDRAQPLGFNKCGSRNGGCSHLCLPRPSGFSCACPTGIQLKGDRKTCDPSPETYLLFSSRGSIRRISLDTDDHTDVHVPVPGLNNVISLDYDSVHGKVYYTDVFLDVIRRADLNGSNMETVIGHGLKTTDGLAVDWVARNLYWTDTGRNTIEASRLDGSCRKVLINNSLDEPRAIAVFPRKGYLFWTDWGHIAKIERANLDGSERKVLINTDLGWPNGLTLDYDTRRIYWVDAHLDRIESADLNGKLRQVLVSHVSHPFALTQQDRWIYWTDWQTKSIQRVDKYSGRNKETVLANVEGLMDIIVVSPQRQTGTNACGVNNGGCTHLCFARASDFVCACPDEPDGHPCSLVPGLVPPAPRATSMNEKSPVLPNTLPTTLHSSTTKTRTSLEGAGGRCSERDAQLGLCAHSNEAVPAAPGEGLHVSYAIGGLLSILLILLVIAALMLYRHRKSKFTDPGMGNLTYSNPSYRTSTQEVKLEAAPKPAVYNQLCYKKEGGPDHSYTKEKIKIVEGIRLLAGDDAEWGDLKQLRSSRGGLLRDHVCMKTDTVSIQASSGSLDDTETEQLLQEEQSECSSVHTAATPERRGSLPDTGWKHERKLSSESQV

| fold binding against no agrin, with 10 ng/ml agrin [1] | fold binding against no agrin, with 30 ng/ml agrin [1] | MuSK tyrosine phosphorylation in myotubes, APP-Fc alone at 1×, 10× or 100× molar concentrations compared to 0.1 nM agrin (0.1-10 nM), 30 min at 37°C, without agrin [2] | Binder |
| --- | --- | --- | --- |
| 1.3 fold | 3 fold | – | MBP-LRP4LBD (LRP4 ligand binding domain, aa 27-349, fused to maltose-binding protein) (domain or fragment, mouse, UniProt Q8VI56 27-349, looked up, Species is stated as mouse for the LRP4-Fc construct, not expressly for this one; Vector pMAL-p4x; also called LRP4-MBP; source: E. coli BL21, periplasmic extract, purified on amylose column; not shown: MBP, N-terminal, kept) CGRSHFTCAVSALGECTCIPAQWQCDGDNDCGDHSDEDGCTLPTCSPLDFHCDNGKCIRRSWVCDGDNDCEDDSDEQDCPPRECEEDEFPCQNGYCIRSLWHCDGDNDCGDNSDEQCDMRKCSDKEFRCSDGSCIAEHWYCDGDTDCKDGSDEESCPSAVPSPPCNLEEFQCAYGRCILDIYHCDGDDDCGDWSDESDCSSHQPCRSGEFMCDSGLCINSGWRCDGDADCDDQSDERNCTTSMCTAEQFRCRSGRCVRLSWRCDGEDDCADNSDEENCENTGSPQCASDQFLCWNGRCIGQRKLCNGINDCGDSSDESPQQNC |
| – | – | 4.3 fold over baseline | B1 |
